Molecular target: thyrotropin receptor (TSHR) (UniProt P16473)
Experiment: cell-based or functional assay

Chain of UniProt P16473 (P16473 21-764 limits assumed): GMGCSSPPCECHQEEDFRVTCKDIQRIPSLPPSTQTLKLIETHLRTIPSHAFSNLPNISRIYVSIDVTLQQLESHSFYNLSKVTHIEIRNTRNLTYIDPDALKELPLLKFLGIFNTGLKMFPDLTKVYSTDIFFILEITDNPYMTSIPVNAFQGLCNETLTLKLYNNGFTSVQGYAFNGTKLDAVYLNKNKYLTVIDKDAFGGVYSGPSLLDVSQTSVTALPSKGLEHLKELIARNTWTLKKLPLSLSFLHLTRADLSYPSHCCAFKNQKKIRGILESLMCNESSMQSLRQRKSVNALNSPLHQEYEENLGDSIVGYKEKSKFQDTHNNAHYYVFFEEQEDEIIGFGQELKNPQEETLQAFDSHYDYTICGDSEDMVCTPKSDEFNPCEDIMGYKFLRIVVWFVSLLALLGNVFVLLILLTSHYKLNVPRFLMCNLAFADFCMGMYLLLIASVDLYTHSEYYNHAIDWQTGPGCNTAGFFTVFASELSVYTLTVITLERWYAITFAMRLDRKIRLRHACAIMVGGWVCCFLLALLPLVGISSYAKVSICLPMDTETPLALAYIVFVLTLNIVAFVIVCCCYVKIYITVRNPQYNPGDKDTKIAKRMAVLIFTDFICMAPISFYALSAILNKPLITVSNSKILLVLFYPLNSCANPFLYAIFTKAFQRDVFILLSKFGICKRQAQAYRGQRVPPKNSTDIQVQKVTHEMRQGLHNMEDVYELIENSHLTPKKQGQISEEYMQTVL

- EC50 of cAMP induction (RLU, HitHunter cAMP XS+ luminescence) in CHO-K1 cells expressing TSHR, relative to the control group (Thyrogen): 99%
Substance: recombinant human thyroid stimulating hormone (rhTSH) produced and purified by the method of the invention (from UniProt P01215 25-116; P01222 21-138) (ligand)

Reference: US20190062396A1
